These results are taken from patent US20040110231A1 (Takeda / Millennium, published 2004).

Changes are numbered by the printed parent chain. Where no end group is shown, it is not given here. [ ]: non-standard residue; d: D form. Met(O) = CS(=O)CC[C@H](N)C(=O)O Where only a bound is given, the exact number is not on record here.

B1: mouse GPR8 ligand (1-23) (peptide)
peptide: WYKHVASPRYHTVGRASGLLMGL
notes: also called mouse homolog to hGPR8L (1-23)
B2: rat GPR8 ligand (1-23) (peptide)
peptide: WYKHVASPRYHTVGRASGLLMGL
notes: also called rat homolog to hGPR8L (1-23)
B3: rat homolog to hGPR8L (1-30) (peptide)
peptide: WYKHVASPRYHTVGRASGLLMGLRRSPYLW
notes: also called rat homologue of the GPR8 ligand peptide (30 residues)
B4: mouse homolog to hGPR8L (1-30) (peptide)
peptide: B3 peptide with L29Q
notes: also called mouse homologue of the GPR8 ligand peptide (30 residues)
B5: porcine homolog to hGPR8L (1-30) (peptide)
peptide: B3 peptide with V5T, S17A, L29M
notes: also called porcine homologue of the GPR8 ligand peptide (30 residues)

For one assay, the target named is T1, human GPR7 (human, UniProt P48145 1-328).
T1 sequence: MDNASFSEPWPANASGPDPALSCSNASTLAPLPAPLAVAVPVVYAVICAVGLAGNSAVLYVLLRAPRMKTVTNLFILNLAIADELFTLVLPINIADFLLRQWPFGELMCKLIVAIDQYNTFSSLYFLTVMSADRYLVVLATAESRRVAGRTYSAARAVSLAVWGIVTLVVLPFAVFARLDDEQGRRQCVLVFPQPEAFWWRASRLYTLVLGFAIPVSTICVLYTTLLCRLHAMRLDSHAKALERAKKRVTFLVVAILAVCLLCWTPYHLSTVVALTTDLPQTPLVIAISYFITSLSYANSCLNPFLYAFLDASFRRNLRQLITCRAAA
Nature of the assay: cell-based or functional assay.
Regarding HVASPRYHTVGRAAGLLMGL [human GPR8 ligand (4-23)], the “GTPγS-Binding promoting activity (EC50 nM)” value was more than 10000 nM. The same measure, in the same setting: with WYKHTASPRYHTVGRAAGLLMGL [porcine GPR8 ligand (1-23)] the figure was 0.35 nM.

For RYHTVGRAAGLLMGL [human GPR8 ligand (9-23)], the “GTPγS-Binding promoting activity (EC50 nM)” value was more than 10000 nM. On the same count and under the same terms, the same measure for XYKHVASPRYHTVGRAAGLLMGL (Nα-acetyl on Trp1) [[Nα-Acetyl-Trp1]-human GPR8 ligand (1-23)]: 1.5 nM; for WYKHVASPRYHTVGRAAG [human GPR8 ligand (1-18)]: 6200 nM; for XYKHVASPRYHTVGRAAGLLMGL (N-terminal Fmoc (N-9-fluorenylmethoxycarbonyl) on Trp1) [Fmoc-human GPR8 ligand (1-23)]: 6.6 nM.

With WYKHVASPRYHTVGRAAGLLMGLRRSPYLW [human GPR8 ligand (1-30)], the “GTPγS-Binding promoting activity (EC50 nM)” value worked out at 0.67 nM. The same measure, in the same setting: the same measure for {3‑indolepropanoyl}-YKHVASPRYHTVGRAAGLLMGL [[N-3-Indolepropanyl-Tyr2]-human GPR8 ligand (2-23)]: 0.85 nM. The same measure, in the same setting: with Ac-YKHVASPRYHTVGRAAGLLMGL [[N-Acetyl-Tyr2]-human GPR8 ligand (2-23)] the figure was 7000 nM. The same measure, in the same setting: with WYKHVASPRYHTVGRAAGLL [human GPR8 ligand (1-20)] the figure was 0.88 nM; with XYKHVASPRYHTVGRAAGLLMGL (D-Trp at position 1) [[D-Trp1]-human GPR8 ligand (1-23)], 2.3 nM. As for WYKHVASPRYHTVGRAAGL [human GPR8 ligand (1-19)], the “GTPγS-Binding promoting activity (EC50 nM)” value is 84 nM. With WYKHVASPRYHTVGRAAGLLMGL [human GPR8 ligand (1-23)], the “GTPγS-Binding promoting activity (EC50 nM)” value amounted to 0.74 nM. YKHVASPRYHTVGRAAGLLMGL [human GPR8 ligand (2-23)]: the “GTPγS-Binding promoting activity (EC50 nM)” value is 7410 nM. The same measure, in the same setting: with WYKHVASPRYHTVGRAAGLLXGL (Met (O) (methionine sulfoxide) at position 21) [oxidized human GPR8 ligand (1-23)] the figure was 1.6 nM; with WYKHTASPRYHTVGRAAGLL[Met(O)]GL [oxidized porcine GPR8 ligand (1-23)], 1.2 nM.

For the next assay, the target named is human GPR8 (human, UniProt P48146 1-333). Nature of the assay: cell-based or functional assay.
Chain of human GPR8 (P48146 whole entry): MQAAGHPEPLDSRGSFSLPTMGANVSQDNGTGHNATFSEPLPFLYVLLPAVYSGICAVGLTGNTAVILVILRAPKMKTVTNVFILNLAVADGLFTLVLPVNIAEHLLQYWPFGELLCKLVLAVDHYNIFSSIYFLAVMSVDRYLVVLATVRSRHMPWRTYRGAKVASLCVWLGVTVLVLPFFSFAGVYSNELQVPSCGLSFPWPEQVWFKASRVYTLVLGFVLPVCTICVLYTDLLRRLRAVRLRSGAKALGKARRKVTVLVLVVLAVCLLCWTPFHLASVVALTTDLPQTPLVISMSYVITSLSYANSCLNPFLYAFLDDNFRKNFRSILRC
In the case of HVASPRYHTVGRAAGLLMGL [human GPR8 ligand (4-23)], the “GTPγ S binding promoting activity (EC50 nM)” value worked out at 6700 nM.

Take WYKHTASPRYHTVGRAAGLLMGL [porcine GPR8 ligand (1-23)]: the “GTPγ S binding promoting activity (EC50 nM)” value was determined as 1.5 nM. As for RYHTVGRAAGLLMGL [human GPR8 ligand (9-23)], the “GTPγ S binding promoting activity (EC50 nM)” value amounted to 4200 nM. As to XYKHVASPRYHTVGRAAGLLMGL (Nα-acetyl on Trp1) [[Nα-Acetyl-Trp1]-human GPR8 ligand (1-23)], the “GTPγ S binding promoting activity (EC50 nM)” value is 14 nM. Turning to WYKHVASPRYHTVGRAAG [human GPR8 ligand (1-18)], the “GTPγ S binding promoting activity (EC50 nM)” value was more than 10000 nM.

XYKHVASPRYHTVGRAAGLLMGL (N-terminal Fmoc (N-9-fluorenylmethoxycarbonyl) on Trp1) [Fmoc-human GPR8 ligand (1-23)]: the “GTPγ S binding promoting activity (EC50 nM)” value is 240 nM.

Turning to {3‑indolepropanoyl}-YKHVASPRYHTVGRAAGLLMGL [[N-3-Indolepropanyl-Tyr2]-human GPR8 ligand (2-23)], the “GTPγ S binding promoting activity (EC50 nM)” value was 5 nM. As for Ac-YKHVASPRYHTVGRAAGLLMGL [[N-Acetyl-Tyr2]-human GPR8 ligand (2-23)], the “GTPγ S binding promoting activity (EC50 nM)” value worked out at 7200 nM.

Turning to WYKHVASPRYHTVGRAAGLL [human GPR8 ligand (1-20)], the “GTPγ S binding promoting activity (EC50 nM)” value amounted to 0.86 nM. Still for that read-out and setting: the same measure for XYKHVASPRYHTVGRAAGLLMGL (D-Trp at position 1) [[D-Trp1]-human GPR8 ligand (1-23)]: 7.1 nM; for WYKHVASPRYHTVGRAAGL [human GPR8 ligand (1-19)]: 1000 nM; for YKHVASPRYHTVGRAAGLLMGL [human GPR8 ligand (2-23)]: 3900 nM. On the same count and under the same terms, with WYKHVASPRYHTVGRAAGLLXGL (Met (O) (methionine sulfoxide) at position 21) [oxidized human GPR8 ligand (1-23)] the figure was 1.4 nM. In the case of WYKHTASPRYHTVGRAAGLL[Met(O)]GL [oxidized porcine GPR8 ligand (1-23)], the “GTPγ S binding promoting activity (EC50 nM)” value turned out to be 0.73 nM.

The next assay concerns the target T1, human GPR7. Nature of the assay: competition with [125I-Tyr10]-hGPR8L (1-23) as tracer, membrane fraction of human GPR7-expressing CHO cells. How it is done: The thus prepared cell membrane fraction was diluted in various concentrations with an assay buffer (25 mM Tris-HCl, 5 mM EDTA, 0.05% CHAPS (3-[(3-choramidopropyl)dimethylammonio]-1-propanesulfonate), 0.1% BSA, 0.5 mM PMSF, 1 μg/ml pepstatin, 20 μg/ml leupeptin and 4 μg/ml E-64, pH 7.4). Then, a 200 μl aliquot of the dilution was dispensed into a propylene-made testing tube (Falcon 2053). In order to assay for the total binding, 2 μl of DMSO and 2 μl of 8 nM [¹²⁵I-Tyr¹⁰]-hGPR8L (1-23) was added to the membrane fraction solution. Also, the non-specific binding was assayed by adding 2 μl of a DMSO solution of 1 mM hGPR8L (1-23) and 2 μl of 8 nM [¹²⁵I-Tyr¹⁰]-hGPR8L (1-23) to the membrane fraction solution. After reacting at 25° C. for 75 minutes, the reaction solution was suction-filtrated through a polyethyleneimine-treated Whatman glass filter (GF-F), and the filter was washed twice with ˜1.5 ml of a wash buffer (25 mM Tris-HCl, 5 mM EDTA, 0.05% CHAPS, 0.1% BSA, pH 7.4). After the filtration, the residual radioactivity remained on the filter paper was measured with a γ-counter, and the specific binding was estimated by subtracting the non-specific binding from the total binding.
It could also be verified that the binding inhibition of [¹²⁵I-Tyr¹⁰]-hGPR8L (1-23) against the human GPR7-expressed CHO cell membrane fraction was noted as described above, when rat and mouse homologs (SEQ ID NO:73 and SEQ ID NO:91) to hGPR8L (1-23) and porcine, rat and mouse homologs (SEQ ID NO:57, SEQ ID NO:74 and SEQ ID NO:92) to hGPR8L (1-30).
With B1, the binding result is on record as “binds”. The same measure, in the same setting: with B2 the entry was “binds”; with B3, “binds”; with B4, “binds”. On the same count and under the same terms, with B5 the entry was “binds”.

The next assay concerns the target T1, human GPR7. Nature of the assay: cell-based or functional assay. The source holds these as a separate data set.
For the molecule WYKHVASPRYHTVGRAAGLLMGL [human GPR8 ligand (1-23)], the “intracellular cAMP production suppressing activity (IC50)” value is 0.025 nM.
